Test results reported in patent US20070269486A1, “Methods and Devices for Reducing Tissue Damage After Ischemic Injury” (priority 2005, published 2007).

Experiment: retention of insulin bioactivity when delivered in PLGA
Conditions: delivered in poly(lactide-co-glycolide) (PLGA)
Text: Insulin is a hormone which improves glycolic metabolism and ATP production. Insulin also may act as a vasodilator, an anti-inflammatory, and an antiplatelet agent. Thus, insulin acts by several mechanisms to decrease infarct size by reducing inflammation, slowing the rate of ischemic necrosis, decreasing circulating levels of FFA and myocardial FFA uptake, restoring myocardial glycogen stores and improving contractile function. The insulin can be human, non-human, or synthetic and can be complete or fragments. Preferably the insulin is a stable, short acting form which is resistant to radiation. Insulin in its crystalline form may be used for improved resistance to radiation. When the insulin is combined with a polymer an agent may be added to preserve bioactivity. […] For substantially longer administration periods, an antacid or other agent may be used to maintain a required pH for continued bioactivity from a PLGA matrix.
Protein or peptide drugs can be human, non-human, recombinant or synthetic and can be the full length native form or an active fragment thereof. Preferably the insulin is a stable, short acting form which is resistant to radiation. Insulin in its crystalline form may be used for improved resistance to radiation. When the insulin is combined with a polymer, an agent may be added to preserve bioactivity. […]

Substance: insulin
- period over which bioactivity is retained: at least 24 hours
